# Test: soluble on expression in E. coli; label from the status in PepcDB or PDB records
row,Sequence,soluble on expression in E. coli
1,MGSHHHHHHDITSLYKKAGSAAAVLEENLYFGGSFTMANVNKTPGKTRRAEVAGGGFAGLTAAIALKQNGWDVRLHEKSSELRAFGAGIYLWHNGLRVLEGLGALDDVLQGSHTPPTYETWMHNKSVSKETFNGLPWRIMTRSHLHDALVNRARALGVDISVNSEAVAADPVGRLTLQTGEVLEADLIVGADGVGSKVRDSIGFKQDRWVSKDGLIRLIVPRMKKELGHGEWDNTIDMWNFWPRVQRILYSPCNENELYLGLMAPAADPRGSSVPIDLEVWVEMFPFLEPCLIEAAKLKTARYDKYETTKLDSWTRGKVALVGDAAHAMCPALAQGAGCAMVNAFSLSQDLEEGSSVEDALVAWETRIRPITDRCQALSGDYAANRSLSKGNMFTPAALEAARYDPLRRVYSWPQ,soluble
2,MSLTRPVTLSEPHFSQHTLNKYASLMAQGNGYLGLRASHEEDYTRQTRGMYLAGLYHRAGKGEINELVNLPDILGMEIAINGEVFSLSHEAWQRELDFASGELRRNVVWRTSNGAGYTIASRRFVSADQLPLIALEITITPLDADASVLISTGIDATQTNHGRQHLDETQVRVFGQHLMQGIYTTQDGRSDVAISCCCKVSGDVQQCYTAKERRLLQHTSAQLHAGETVTLQKLVWIDWRDDRQAVLDEWGSASLRQLEICAQQSYDQLLAASTENWRQWWQKRRITVNGGDAHDQQALDYALYHLRIMTPAHDERSSIAAKGLTGEGYKGHVFWDTEVFLLPFHLFSDPTVARSLLRYRWHNLPGAQEKARRSGWQGALFPWESARSGEEETPEFAAINIRTGLRQKVASAQAEHHLVADIAWAVIQYWQTTGDESFIAHEGMALLLETAKFWISRAVRVNDRLEIHDVIGPDEYTEHVNNNAFTSYMARYNVQQALNIARQFGCSDDAFIHRAEMFLKELWMPETQPDGVLPQDDSFMAKPAINLAKYKAAAGKQTILLDYSRAEVNEMQILKQADVVMLNYMLPEQFSAVSCLANLQFYEPRTIHDSSLSKAIHGIVAARCGLLTQSYQFWREGTEIDLGADPHSCDDGIHAAATGAIWLGAIQGFAGVSVRDGELHLNPALPEQWQQLSFPLFWQGCELQVTLDAQRIAIRTSAPVSLRLNGQLISVAEESVFCLGDFILPFNGTATTHQEDEEGHHHHHH,soluble
3,MNKPLTPSTYIRNLNVGILRKLSDFIDPQEGWKKLAVAIKKPSGDDRYNQFHIRRFEALLQTGKSPTCELLFDWGTTNCTVGDLVDLLVQIELFAPATLLLPDAVPQTVKSLPP,soluble
4,MVRKQKRARLIYNPTSGQEIMKKNVAEVLDILESFGYETSAFQTTPRADSAKNEAARASQAGFDLVIAAGGDGTINEVVSGIAPLKRRPKVAIIPTGTTNDFARALKIPRGNPVEATKLIGKNQTIHMDIGRAYNDKYFINIAAAGSLTELTYSVPSQLKTMFGYLAYLVKGAELLPRVRNVPVKVFYDHGVFEGEASMIFVALTNSVGGFETIAPDAKLDDGKFTLILVKTANLFELTDLIRLVLTGGRHINHKKIEYIKTSYLKIIPQGNPPKRMMINLDGEYGGDAPIELRNLKNHIEFFANTDEISDDAITLDTEELVLEAIAQKFAREAESLDEMDKTKEQD,soluble
5,MGSDKIHHHHHHVYTIARLHNFGCAFLYSPLTYPLYRSWLRTLTIKGNIIAIGASVADKPVGLALAEILRDGSAKLLSIFVDPNSRCLGIGTALVHSLEEELILRNCTSIEIVYIAGKSTSLALECLLKKCNWPSAKPRMLICKTTTNDMTNAPWMKLSRMPAAYEIFPWMEITFQERVALKKQQEEKRWMASDAIPFDYEQDLEPINSIGLRYKGEVVGWLITHRTAPDTIRYTCSYVRPDIQKMGRIIPLYIRATQLQMEAGISRGTWTVSLMHTSMIAFVKKHMGPYLISLEQSMESSKLLSHL,not soluble
6,MSLQNLSPTQREILLALTDLYNRQKRMIKSKEVADIIGKDEGTVRNIILSLKVLGLVESKPGPNGGYMPTLKAYEIINNPTLTPILDKLNLYKGMIETDIKVENIEIIDITNPSANRVLLKVEGDLRKLKIGDAVRLGPTPYSRLVIEGLILHLDENSKEIVVDVKRMISIPKEKVKNLISKKLIALKPETSLREASMIFYKEAIRGAPVINQDEKVVGILTTADIIKAFFEGNYTAKVSDYMKTNVISINENEDLLDAIRKMIIYNVGRLLVLDSNNKAVGIVTRTDILRSIAGLEGLWTTEGHHHHHH,soluble
7,MRRVLFSCFCGLLWSSSGWAVDPLGTININLHGNVVDFSCTVNTADIDKTVDLGRWPTTQLLNAGDTTALVPFSLRLEGCPPGSVAILFTGTPASDTNLLALDDPAMAQTVAIELRNSDRSRLALGEASPTEEVDANGNVTLNFFANYRALASGVRPGVAKADAIFMINYN,not soluble
8,MNREEMTLLGFEIVAYAGDARSKLLEALKAAENGDFAKADSLVVEAGSCIAEAHSSQTGMLAREASGEELPYSVTMMHGQLHLMTTILLKDVIHHLIELYKRGAK,soluble
9,MSLAHAQMEMPPRSLGAVIEQAEAQEAPILLEVYAPWCPYCQRMQENVYADAEVRSYLDRRFTYARLNRDTTGGTHRFNGRTLSSKELGMALGARGVPTTVFMKPDGTPIAKQPGYIKRPVFLQMLRYFGSGAYEEQSFEAFRARASEGHHHHHH,not soluble
10,MPPVVPCHCTQCRKWSGHFWAATSVAMADFRLVRDEGLRWFRASDTASRGFCALCGSSLSWKPDGRDRMSFSPGAVDGPTGLATGHHIFMDEAGDYCRVSDGTPHYPGDDEA,not soluble
11,MKAIILAGGQSERFGEPKAFAQINAQPFYKRIIDVLEGTNMFNQIIISTNETLASQFDHSDIIIDEDQNKDKGPLAGIQSVIQHYESEELFFVVSVDTPMISQKAVSKLYQFMVEHLIEDQLDIAGFKEKGRPIPTIAFYSPHTLPYIDDALNSNDYSLKSVYNKVKSDWLDVNLIESPDYWYKNINYQQDLDSLQQDILNR,not soluble
12,MSIKKSPVYNVIAVPVEKVQANDYNPNVVAPPEMRLLELSIWEDGFTMPCVCYYDKEKDVYILVDGFHRYSVLKTSKRIFQRENGMLPIVVIEKDLSNRMSSTIRHNRARGTHN,soluble
13,MAHHHHHHMLRNALSCFLEQLELARLTETLPSNIDYAELVAMVQQRLQGAPGKTLGVFEHLRAKEIRLPEPDNPDYAVASMSAPLTVFLFDIEGTTTPLPFVQKVLMPLAESRVEAYMAAHFPADQAFVDLLTAAAERPSSPLAKAQTAYSKAFTDALATSGARDWKDEAANEVTRSDFCAFFHHQIKRGADHAAVKVVQAAIWAEVFAEGKLQSPVFPDVNTFFRFVGGPAMAERTRIALYSSGSVAAQKLVMGHTSYGDLNPFITAYFDPLLVGTKLMPKSYMKIRTLLVEQLDIPPESMHIVFVTDNTSEASAAETSGAVESAILCVRPLNDWITFDTMLSINVPYIMSFTQLMQRNCVVDMAKLVSDTKECIKQHNIS,soluble
14,MNDDTRARGGREGGLRAARDRLQPALLDRLTDDERARCTEPPDAQAIGGERLRAAVLRDLAWLLNTRNGEDGFVDWAAFAHAQASVLNYGMRPLVGKPMSGVERMSVEASIRDAIVRFEPRIAPDSVEVRSVLDAPGGAAGERRHNVLMFEIKGTLWSVPHPVEFVLRSALDLETGAMALQPAAGG,not soluble
15,AAKRMKKRIKSATFFTTLLDFSQPGEVGAYINDTIISAIETQNNAKGYMDGRSLSVTFSLLRENSLYWNYYVDNYLKGNSPVDFDLLYWNSDSTNVSAASHNFLLRELYLENKLVQDKGVKIGGVWIDLNKIKIPSYFVSTKEDHIALWQGTYRGALHTGGNKTFVLGESGHIAGIVNHPAKNKYGYWLNDTLDDS,not soluble
16,MAHNNYLDLEMLFNECNAQHYENLGMFFKWLQQFAAHHEDPKITIKDFKGDKTSGEMILHVNTFTLFKYRQEFDMKVSALNDNGLGWKILFVDRSLGCN,not soluble
17,MGSDKIHHHHHHMTMTDERPVLVATEADDITADMVITELNRRDVPVVRFNLADIGEGLTVSARFGTCPAPVVGQVRTSSRTADLTRVRSVYWRRPEWPSFPHLSPDDSRFAAAQVRYGLGGTLYALDHPLWVNHPLRIAAADYKPAQLALAQQLGFTIPTTLVTNDPAEAREFIRTQGDVIFKTLRWTPYTRDGVPVTGWADPVTADEIDDNVRITPHLFQARVDKVTDLRVLIVGQHTFAVRIDSELLDWRRDYSVLTYTVEHLPDSVDKALHAYLDRLELVSGSFDLTVDRAGVYWWLELNPNGQWGWLEKETGLPMSAAFADLLVQGDRQ,not soluble
18,MSLSRKRKSYSAEFKTRVVLELLGGEETVAQIASKYEITPKSLIDWKKQFLENASLVFDVGSATKAYKDEIEELKTENDALAKKLGKTTIERDWAVGKLKSLGLSNKKDLVTPKLKNLSMARQCEIIDLNRSTLYYEPKPISDNDLKIMKRIDEIYTDISSTYGYRFMHRQLLEDGFSIGVNKVNKLMNTMGIQAIFPKKKRHTSIKNYKHKIYPYLLRELEINRANQVWSGDITYIPIKGGFVYLCAIIDWHSKTILSWKISTTMDTSLVTDVLKEAIEKYDIPVIFNSDQGSQYTSHEHTELLKKHNIQISMNGKGRSIDNIAIERFFRTLKYDEIYINEYSSISDLRFKVSRYINFYNHNRFHSALNYQKPMNVYLEGLKNVAEGHHHHHH,not soluble
19,GPGSMTKAASLKKGSGDKRAREASLQEATARKVKVETAAMLPKASHDSQAHPNLFSWLLNTSRGEFFRKYFERKHLVASHGSGEYFASGLPGVVPPVNWSTERMLEHVKTHPSRYGADLDIVKFDPKLKRRVSYRTKGLVDAAELEACMKDGWSVRFLRPNEFIESNSAFIGCIEKEFNCYCGANSYWTPANSQGFAPHYDDVDVFFLQLEGEKLWCLYDPPEDVDVLARHSSEDYAPERFPTPKHTITLKAGDVLYMPRGTVHQGKTTLKTHSLHITFSANQMNSWADFMSRAAQYTVETLAANKLEWRRALPRDMPQVMGEVNNPVFRDTHGLPALSANQQDHRANLQTKVREMVAELTLLLTDEVNMDVCADVYGKDTIQKLQPPSRTYSGAAPASRKLSHASRVRLISRNCMRLLLNVPGEARVYHIGQNSTVCLAGELGELRFEADFAPAIATLLSSYPKTMPVSALPFPGFDNSDDVAENQLLLVETLRDAGLLHVGSSAKGNAPS,soluble
20,SAQAQRVQDAIQHWESHHPKEVAARSTRLAELKQALAEQGAVVRTLQPKVTTTSPQAMLKQAMPALQKMETYACTDGLTFVGKHSSHRRQVEERLDSFGGSQSRKAANKQANDMSNMAAIAAKRGNVSLNQLKSIAACVAQAQAGCCTTFAYSAAAELMKHNQDNQQRIEVVAHRGAKGHSQTHCFVVVGRDPNSELSKPETWGKQAHVIDPWAATIGGRLQGTPSNPPIANLWPPTESV,not soluble
21,GPGSMPNPYTGNYEAARFVEYYASAQMLRDSVHRLHTVSIQRHMDALRRAESAHQKHTCPAAPIRSRQQIEEHANRMVYQEMLRRQKNMTKLAWDVYKPVPPKRLSSEELRSLVKRMYEQQMQNMTERKKEARQRQVVLSDEVLAETRRGRRMLRQRDIHRSLESGWRTPSSRAKYNDGKLLLVSGGNVKSTSKERPPDLGYLARLAKPLRPTERVNKC,not soluble

# Source: the DeepSol protein solubility set
